The values that follow come from the DeepSol protein solubility set.

This series is described as follows: soluble on expression in E. coli; label from the status in PepcDB or PDB records.
As to “MRLAFWLYEGTALHGVSRVTNSMKGVHTVYHAPQGDDYITATYTMLERTPEFPKLSISVVRGQDLARGTSRLPGTVEQVDKHYKPELIVVAPSCSTALLQEDLGQMARASGVDQSKIMVYAVNPFRVAENEAAEGLFTELVRRFAAEQPKTEKPSVNLLGFTSLGFHLRSNLTSLRRMLKTLGIEVNVVAPWGAGIDDLKKLPAAWVNIAPFREIGCQAAGYLKEKFGMPSITEAPLGVNATLRWLRAIIAEVNKIGAEKGMAPMAMPELRDFSLDGQSAPSSVPWFARTADMESFSNKRAFVFGDATQVVGVTKFLKDELGMKIIGAGTYLPKQADWVREQLEGYLPGELMVTDKFQEVSAFIEEEMPELVCGTQMERHSCRKLDVPCMVISAPTHIENHLLGYYPFFGFDGADVMADRVYTSAKLGLEKHLIDFFGDAGLEYEAEEPEAFTEPTMSGNGTVASVSSAEAPSEAAVVTATATGELSWTAEAEKMLGKVPFFVRKKVRKNTDNYAREIGEPVVTADVFRKAKEHLGGLEHHHHHH”, the “soluble on expression in E. coli” value is listed as “not soluble”. Turning to “MRLIVVSGQSGAGKSVALRVLEDLGYYCVDNLPVSLLTAFIQSVQGSQQNVAVSIDIRNLPKEPSLVQDVLDQLKQNNDVSMLFLDASKETLLKRYSETRRIHPLSLSQSKPSLAQAIELEKQLLGPLKEQADLLLDSSNQSLHELSETVRMRIEGRERKDLVMVFQSFGFKYGLPTDADYVFDVRFLPNPHWEPDLRPLTGLDAPIKSFLEGHSEVMELKQQIQKFFEYWLPMLEKNNRSYLTIAIGCTGGKHRSVYLTQQLGEYFAQLGHQVQLRHTSLEKQQS”, the “soluble on expression in E. coli” value is given as “not soluble”. In the case of “MRLRLLSLPFILSLCAPLLPLNTLAAERIVTIGGDVTEIAYALGAGDEIVARDSTSQQPQAAQKLPDVGYMRTLNAEGILAMKPTMLLVSELAQPSLVLTQIASSGVNVVTVPGQTTPESVAMKINAVATALHQTEKGQKLIEDYQQRLAAVNKTPLPVKVLFVMSHGGLTPMAAGQNTAADAMIRAAGGSNAMQGFSRYRPLSQEGVIASAPDLLLITTDGVKALGSSENIWKLPGMALTPAGKHKRLLVVDDMALLGFGLETPQVLAQLREKMEQMQ”, the “soluble on expression in E. coli” value is recorded as “not soluble”. For “MRLSFLTLQRRNAVGDALRHKSALRRILKTGRRASGTACDAERRTIVEKLPHDSLEHHHHHH” the value was “not soluble”; for “MRLTIPILKEGGMLMKFGFIGAGKVGFSLGKYLADNNQNVVGYYSIINEEAIEAAKFTGSKYYENMEQLVEDSEVLFLTVPDGQIENLWNQLKSSHKNWMAKYNKPLLNNKIVCHCSGALSSDIFSSIAEYESFGYSIHPLFAVSNRYESYKELSDSYFTIEGNIEKINKMKELFESFGNTVCIISKDDKIKYHGAAAIASNLVVGLIGLSEELLKQCGFDEKSAHNALAPIIKGNVKHIVEEGVVEALTGPIERCDVSTVRKHMSVFDKKTNEIYKAVSKEVLEIAKIKNKDRDYSKMEEVLQ”, “not soluble”; for “MRLTTKGRYAVTAMLDLALHAQQGPVSLADISERQGISLSYLEQLFAKLRRGNLVTSVRGPGGGYQLSRHMSGIHVAQVIDAVNESVDATRCQGQGDCHSGDTCLTHHLWCDLSLQIHEFLSGISLADLVSRQEVQEVALRQDERRCSGKTPRLDKIEASAID”, “not soluble”. For “MRLVYGLGRSGLGVLRFLRKRGLPARFYDDRPREEEVREALALGFQPDWNLEEAYEEVVAAPGVPLDHPHLKRLAARGAKVLGEAELAYRLSPTPIVGITGTAGKTSTTLFTAHLLRAHGLRAREGGNVDPPLVSVVDEAEVAVAELSSFQLERVHAFRPRVAVLLNLGVDHLDRHGTVEAYHAAKLNLLKNLTPEDALVYNRLDPKVRRAAEASPARLYPFTPGSTPRETNLRAVLEATRAYLDLLGRPLDPGAVAEALRTLPEAPHRFQAFARKGGVVFIDDSIATRTEAVRAALEAVPAPIAWILGGEDKGADLAPLLPLLGRVRVALALGRDGPRFARALEGRTEVVVIAEKDGRTAMRKAVEEALSRLEQGSVLLAPLAASFDQFRDYKDRAQAFREAVFALGGEPWTPSSS” the value was “soluble”; for “MRMKALLIDYGSGNLRSAAKALEAAGFSVAVAQDPKAHEEADLLVLPGQGHFGQVMRAFQESGFVERVRRHLERGLPFLGICVGMQVLYEGSEEAPGVRGLGLVPGEVRRFRAGRVPQMGWNALEFGGAFAPLTGRHFYFANSYYGPLTPYSLGKGEYEGTPFTALLAKENLLAPQFHPEKSGKAGLAFLALARRYFEVL”, “soluble”; for “MRNIIFTGKGGVGKTSVAAATALKAADMGYKTLIMSTDPAHSLGDSLDIELGPSPVKVAENLWGQEVSVFGDLNLNWDVVREHFAHLMASRGIEGVYAEEMGVLPGMEELFSLSYIKRYNEEQKDFDLLVVDCAPTGETLRLLSLPETFGWFIKMIRNIEKYMVKPVIRPLSKKVKKLDDFVAPEEVYEKVDNLFSSTEGIIDLLADGTKTTMRLVMNPEKMVIKESMRALTYLNLYGITVDRITINRVMPDQSPDPYFQQWRNIQQKYIDQINSAFAPIPVAEVPLFNNEVVGLEMLRKVGEKVYGDENPLDIF”, “not soluble”. Regarding “MRNNGALGLTSKSLKNDKIMNVRTKDRGEPSTVKFSPDGRLCAMQRTPTTADVVFLEKTETSLCLELTVNTKSKEPLLAVEWVTNNQLLLVNNHSAELLYINEDKKSSKLLKATNVNAAWAIYYAPSQLLLIANGQSCSYLQPFVVTHSQFTRMKGFEVDFGGSISKENFLEKDAAIATIYGRVYVLVFKYSNRNATVLDLYELPFDAATGPSFKHSLILGFNGGCGIHVIDNLVVVHHQASQKSLIFDIRVSSPSKSHSPLVVTTIESHPQHQPPPALYTNFWFTFLPDIVIDSSGGVMYSIRLKNEHAQLEIADKQTMLEYLARRSNEKKLFVTTLLACLKARALSLRQIRKVFAMLTGVTGKSKSSFFCNGNFKLRQMANLPICRRCSISANCRFAGNFQIRQISDLAEIFIFSKFSVLPETCNSGKLIICRFAGDEEVSLPESYVANIMLQYLRSLFDAEITPEAYLIEMVVETLAEAGEMSKLQQIVTYRVINDSKPLAFLLLSYEARCSTLFQSGVDILARNKASDEIVEVMLEKKQIVDAFRFIDVRNLNDALIPKVVEAANQHCVRQTRYAIKEHLTEKKAKASLYKSIGDELYTAEEVKGASEEQATCALFEI”, the “soluble on expression in E. coli” value is recorded as “not soluble”. For “MRNTMRSFILRARSAPTDSQRLLDEIGGKCHTEILAHCMMNSLFTAQSHREDVVIHLVLESTRDYSRTITVEANEISDVGGFHEAALIALLVKALDASVGMGKEQTRVVQPGLTVRTISFEALLGELAEHHSLYMMDKKGDSIRDIKIGPNPCFILTDHIPMPKKSGNSMKRLGVEKISLGPKMLFASQCVTLIHNEIDHQEAGW” the value was “soluble”.

For “MRNVELIFIPTPTVGHLVPFLEFARRLIEQDDRIRITILLMKLQGQSHLDTYVKSIASSQPFVRFIDVPELEEKPTLGSTQSVEAYVYDVIERNIPLVRNIVMDILTSLALDGVKVKGLVVDFFCLPMIDVAKDISLPFYVFLTTNSGFLAMMQYLADRHSRDTSVFVRNSEEMLSIPGFVNPVPANVLPSALFVEDGYDAYVKLAILFTKANGILVNSSFDIEPYSVNHFLQEQNYPSVYAVGPIFDLKAQPHPEQDLTRRDELMKWLDDQPEASVVFLCFGSMARLRGSLVKEIAHGLELCQYRFLWSLRKEEVTKDDLPEGFLDRVDGRGMICGWSPQVEILAHKAVGGFVSHCGWNSIVESLWFGVPIVTWPMYAEQQLNAFLMVKELKLAVELKLDYRVHSDEIVNANEIETAIRYVMDTDNNVVRKRVMDISQMIQRATKNGGSSFAAIEKFIYDVIGIKP”, the “soluble on expression in E. coli” value was “soluble”. As to “MRPDLSRVPGVLGEIARKRASEVAPYPLPEPPSVPSFKEALLRPGLSVIAEVKRQSPSEGLIREVDPVEAALAYARGGARAVSVLTEPHRFGGSLLDLKRVREAVDLPLLRKDFVVDPFMLEEARAFGASAALLIVALLGELTGAYLEEARRLGLEALVEVHTERELEIALEAGAEVLGINNRDLATLHINLETAPRLGRLARKRGFGGVLVAESGYSRKEELKALEGLFDAVLIGTSLMRAPDLEAALRELVG”, the “soluble on expression in E. coli” value is listed as “soluble”. Under “MRRGMTGLKTLAQQIALIWKNDPQQFESQAVAVMDAVKNRMPGRAKINVDVFSKLELSLRTSFDLQDGGFSGSPKFFNTPALNYLLERFYETGNEEILNFIGLTLKTISIRGIHDLVNGGFFRYSTDTMWIVPHFEKMLYTQTQLMKLFSKMFMLTRDNVYRDMIYDIKRFMDENLYWPGHGYYSGMDADVDGNEGGYYKWSFQDLKVALGQDFEAFRAIFDISEGGNYMDELYGQTGDNLIYFTGSFDEYRRSIEENGSTDMLSRSIEKLREAEKKRKKPSVDKKILTDLNGLAISSLSWAYRATGDKEFLDSAVSVSEFIIKNMIGDYLLHSFFEGSASVKSSLFDYAFLIRGLIDLYTITFDQKYLEEAKKLADEAIKFLFDGKFKLSEEIDDPQIADSEVESPYATIVADLDDLSLLTEDLQYHQIADQALTSVFDAVSRFPSAFPSLEHHHHHH” stands “not soluble”; under “MRRNYSRVIDELRTDYGLNLVAIGQRLGTDPRTVGKWWQGKHNPNQESRKKLNRLYREVKETMMTQVNIFEEANDNTKQVMQVITTTNFHGQPLDIYGDIQEPLFLARAVAEMIDYTKTSQGYYDVQAMLRKVDEDEKLKGMALEGTTKNFRSGQKVWFLTEHGLYEVLMRSNKPKAKEFRKAVKNILKEIRLNGYYMQGELVQELAQPSTQKLPGISDLTYILNKLADLVDMDNLADISNGIDRVQQLVKLISL”, “not soluble”. As to “MRRRSNRQYVDLSYFRETADALLFDVETNSREFTNEINTVKEEKAKWDERTPQGYTAKPISFEGADIWCSWICTVPGPRGSPWEGGEYEVSVNFHKWPIIPPICEFKTPLHHPNVDLRGSIYLKMLEQEHWSSETSLKKLLREISNLLATPDLTQAANIEAWMEYENQRENYEAKARAYAWTVNPNAVGYMEVSENSGIQRETAKAKLAVQNGAMESDEDDDDLPIDIEN”, the “soluble on expression in E. coli” value was “not soluble”. As for “MRRSAAPSQLQGNSFKKPKFIPPGRSNPGLNEEITKLNPDIKLFEGVAINNTFLPSQNDLRICSLNLPSEESTREINNRDNCSGKYCFEAPTLATLDPPHTVHSAPKEVAVSKEQEEKSDSLVKYFSVVWCKPSKKKHKKWEGDAVLIVKGKSFILKNLEGKDIGRGIGYKFKELEKIEEGQTLMICGKEIEVMGVISPDDFSSGRCFQLGGGSTAISHSSQVARKCFSNPFKSVCKPSSKENRQNDFQNCKPRHDPYTPNSLVMPRPDKNHQWVFNKNCFPLVDVVIDPYLVYHLRPHQKEGIIFLYECVMGMRMNGRCGAILADEMGLGKTLQCISLIWTLQCQGPYGGKPVIKKTLIVTPGSLVNNWKKEFQKWLGSERIKIFTVDQDHKVEEFIKSIFYSVLIISYEMLLRSLDQIKNIKFDLLICDEGHRLKNSAIKTTTALISLSCEKRIILTGTPIQNDLQEFFALIDFVNPGILGSLSSYRKIYEEPIILSREPSASEEEKELGERRAAELTCLTGLFILRRTQEIINKYLPPKIENVVFCRPGALQIELYRKLLNSQVVRFCLQGLLENSPHLICIGALKKLCNHPCLLFNSIKEKECSSTCDKNEEKSLYKGLLSVFPADYNPLLFTEKESGKLQVLSKLLAVIHELRPTEKVVLVSNYTQTLNILQEVCKRHGYAYTRLDGQTPISQRQQIVDGFNSQHSSFFIFLLSSKAGGVGLNLIGGSHLILYDIDWNPATDIQAMSRVWRDGQKYPVHIYRLLTTGTIEEKIYQRQISKQGLCGAVVDLTKTSEHIQFSVEELKNLFTLHESSDCVTHDLLDCECTGEEVHTGDSLEKFIVSRDCQLGPHHQKSNSLKPLSMSQLKQWKHFSGDHLNLTDPFLERITENVSFIFQNITTQATGT”, the “soluble on expression in E. coli” value was “soluble”.
